From patent publication US20140178329A1 (INSTITUCIO CATALANA DE RECERCA I ESTUDIS AVANCATS ICREA, published 2014) come the findings set out here.

Test [1] addresses T1, human BCMA-Fc (human, UniProt Q02223 2-54, limits assumed).
T1 construct: Generated in-house; not shown: Fc portion of human IgG1
T1 sequence (looked up): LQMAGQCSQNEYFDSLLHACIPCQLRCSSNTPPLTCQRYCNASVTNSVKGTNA
Description: binding test not named (data not shown).

The target of test [2] is T2, human TACI-Fc (human, UniProt O14836 2-160, limits assumed).
T2 construct: Generated in-house; not shown: Fc portion of human IgG1
T2 sequence (looked up): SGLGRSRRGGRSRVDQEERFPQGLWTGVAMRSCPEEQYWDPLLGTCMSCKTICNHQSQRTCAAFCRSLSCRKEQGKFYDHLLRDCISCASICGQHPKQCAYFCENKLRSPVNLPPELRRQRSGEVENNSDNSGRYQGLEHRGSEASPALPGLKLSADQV
As to the kind of experiment: binding test not named (data not shown).

The target in test [3] is T3, mouse BCMA-Fc (R&D Systems) (mouse; human, UniProt O88472 2-49, limits assumed).
T3 construct: Bought; also called mBCMA-Fc; murine BCMA-Fc; not shown: Fc portion of human IgG1
T3 chain (looked up): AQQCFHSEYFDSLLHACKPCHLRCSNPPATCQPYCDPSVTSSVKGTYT
Description: receptor-binding ELISA, mouse BCMA-Fc coated [TACI selective, Ms BCMA-Fc coated]. The method, then: (§1) The relative binding of the variants to either BCMA or TACI, was tested using a binding ELISA. The following proteins were used: human BCMA-Fc, human TACI-Fc (both generated in-house), mouse BCMA-Fc (R&D Systems, Abingdon, UK), mouse TACI-Fc (R&D Systems); in all cases the Fc portion is from human IgG1. BCMA-Fc and TACI-Fc were coated on 96-well Nunc Maxisorp plates (Thermo Fischer Scientific, Roskilde, Denmark) at concentrations of 1 μg/ml and 2 μg/ml, respectively, in 0.5 M sodium bicarbonate buffer pH 9.5, overnight at 4° C. Plates were then blocked with 5% BSA for one hour at 37° C. Soluble APRIL variants in the form of tissue culture conditioned medium were then added to the plate for two hours at 37° C. Following APRIL binding, plates were washed three times with PBS, 0.05% TWEEN®20. Bound APRIL was detected with 1 μg/ml of HRP-coupled anti-FLAG M2 and visualized with 2,2′-azino-bis(3-ethylbenzothiazoline-6-sulphonic acid (ABTS) (Sigma-Aldrich). The absorbance was read at 405 nm using a UV-VIS microplate reader (BioRad, Veenendaal, The Netherlands).

Test [4] addresses T4, mouse TACI-Fc (R&D Systems) (mouse; human, UniProt Q9ET35 5-129, limits assumed).
T4 construct: Bought; also called mTACI-Fc; murine TACI-Fc; not shown: Fc portion of human IgG1
T4 sequence (looked up): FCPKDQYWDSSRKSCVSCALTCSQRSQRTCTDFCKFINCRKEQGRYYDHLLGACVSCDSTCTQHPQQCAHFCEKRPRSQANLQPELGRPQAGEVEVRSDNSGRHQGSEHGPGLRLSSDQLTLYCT
As to the kind of experiment: receptor-binding ELISA, mouse TACI-Fc coated [TACI selective, Ms TACI-Fc coated]. The method, then:
as §1

The target in test [5] is T1, human BCMA-Fc. As to the kind of experiment: receptor-binding ELISA, human BCMA-Fc coated, doubling dilutions of conditioned medium [BCMA-Fc coating]. The method, then: (§2) FIG. 2: Production and real binding properties of the APRIL mutants. (Panel A) Production of APRIL variants in conditioned medium by transient transfection of 293T cells. Supernatants (10 μl of each) were analyzed by anti-FLAG immunoblotting. Upper panel: mutants predicted to be selective for BCMA. Lower panel: mutants predicted to be selective for TACI. All mutants were checked more than three times following independent rounds of transfection to assess their expression. (Panels B and C) Receptor binding ELISA to compare binding of the predicted BCMA- and TACI-specific APRIL variants to human BCMA-Fc and TACI-Fc. Bars, from left to right, represent doubling dilutions of the conditioned media starting from undiluted media. Relevant APRIL variants are shown with dark grey bars, WT APRIL with black bars and other variants with light grey bars. This is representative of three separate experiments performed with independent APRIL-containing cell-conditioned media.
(§3) The relative binding of the variants to either BCMA or TACI, was tested using a binding ELISA. […] Bound APRIL was detected with 1 μg/ml of HRP-coupled anti-FLAG M2 and visualized with 2,2′-azino-bis(3-ethylbenzothiazoline-6-sulphonic acid (ABTS) (Sigma-Aldrich). The absorbance was read at 405 nm using a UV-VIS microplate reader (BioRad, Veenendaal, The Netherlands).
On the technique in general: ELISA stands for enzyme-linked immunosorbent assay.

For test [6], the target named is T2, human TACI-Fc. Description: receptor-binding ELISA, human TACI-Fc coated, doubling dilutions of conditioned medium [TACI-Fc coating]. As to the method: as §2, §3
Test [7] has as its target T2, human TACI-Fc. Description: SPR (Biacore 2000), FLAG-APRIL captured by anti-FLAG M2, receptor-Fc injected, single cycle kinetics, 1:1 fit. As to the method: (§4) FIG. 10: Surface Plasmon Resonance sensorgrams to illustrate binding of TACI-Fc and BCMA-Fc to WT and R206E-APRIL. Sensorgrams of human (Panel A) and mouse (Panel B) receptors binding to WT and R206E-APRIL. Stepwise increments in the curves represent sequential injections of receptor at the following concentrations: […]. In some cases, no value for affinity was calculated due to a low binding response or high drift.
(§5) In order to further assess the binding properties of the mutants and to measure apparent affinities and kinetics of receptor binding, a Surface Plasmon Resonance based receptor binding assay was performed on a Biacore 2000 (GE Healthcare, Diegem, Belgium). Anti-FLAG-M2 monoclonal antibody (Sigma-Aldrich) was diluted at a concentration of 5 μg/ml in 10 mM sodium acetate pH 4.5 and covalently immobilized (approx 1500 RU) to a CM-5 sensor chip (GE Healthcare), using standard amine coupling chemistry according to manufacturer's guidelines (Amine coupling kit, GE Healthcare). The different FLAG-APRIL variants in the form of tissue culture supernatants were captured onto the chip via the FLAG-tag at 10 μl/minute for five minutes, giving capture levels ranging from 159 to 207 RU. As a reference lane, one of the flow cells was left free of soluble FLAG-APRIL, to control for any background binding. BCMA- or TACI-Fc were then injected for three minutes over all four flow cells at 30 μl/minutes at increasing concentrations (ranging from 1-50 nM) using the single cycle kinetics method at 25° C. Dissociation was monitored for five minutes. The resulting curves were fitted using a 1:1 Langmuir model using BIAevaluation software 4.1. For each combination of FLAG-APRIL and BCMA- or TACI-Fc, the apparent kₐ, kd and KD were calculated from a global fit of binding curves from at least three separate experiments. Non-specific binding in the reference cell was subtracted before curve fitting. Regeneration of the anti-FLAG antibody surface was carried out with a 10-minute injection at 30 μl/minute of a mixture of ⅓ volume of TBS pH 11.5, ⅓ volume of Ionic solution and ⅓ volume of water. The Ionic solution was comprised of KSCN (0.46 M), MgCl₂ (1.83 M), urea (0.92 M) and guanidine-HCl (1.83 M).

In test [8] the target is T3, mouse BCMA-Fc (R&D Systems). As to the kind of experiment: receptor-binding ELISA, mouse BCMA-Fc coated, dilution series of conditioned medium, anti-FLAG-HRP, OD 405 nm [BCMA selective, Ms BCMA-Fc coated]. As to the method: as §1
Test [9] addresses T1, human BCMA-Fc. As to the kind of experiment: SPR (Biacore), affinities of R206E for BCMA-Fc and TACI-Fc compared. The method, then:
as §4
In order to further assess the binding properties of the mutants and to measure apparent affinities and kinetics of receptor binding, a Surface Plasmon Resonance based receptor binding assay was performed on a Biacore 2000 (GE Healthcare, Diegem, Belgium). Anti-FLAG-M2 monoclonal antibody (Sigma-Aldrich) was diluted at a concentration of 5 μg/ml in 10 mM sodium acetate pH 4.5 and covalently immobilized (approx 1500 RU) to a CM-5 sensor chip (GE Healthcare), using standard amine coupling chemistry according to manufacturer's guidelines (Amine coupling kit, GE Healthcare). […] Dissociation was monitored for five minutes. […] For each combination of FLAG-APRIL and BCMA- or TACI-Fc, the apparent kₐ, kd and KD were calculated from a global fit of binding curves from at least three separate experiments. […]
In general terms: Surface plasmon resonance follows binding to a sensor surface in real time, without labels.

Test [10] has as its target T1, human BCMA-Fc. As to the kind of experiment: SPR (Biacore 2000), FLAG-APRIL captured by anti-FLAG M2, receptor-Fc injected, single cycle kinetics, 1:1 fit. The method, then:
as §4, §5

The target of test [11] is T3, mouse BCMA-Fc (R&D Systems). The description is as above. As to the method:
as §4, §5

Test [12] deals with T2, human TACI-Fc. As to the kind of experiment: SPR (Biacore 2000), FLAG-APRIL captured by anti-FLAG M2, receptor-Fc injected, single cycle kinetics, 1:1 fit; SPR (BIAcore), mean ± error of fits; weak but measurable binding. As to the method:
as §4
as §5, with “Regeneration of the anti-FLAG antibody surface was carried out with a 10-minute injection at 30 μl/minute of a mixture of ⅓ volume of TBS pH 11.5, ⅓ volume of Ionic solution and ⅓ volume of water. The Ionic solution was comprised of KSCN (0.46 M), MgCl₂ (1.83 M), urea (0.92 M) and guanidine-HCl (1.83 M).” left out

A word on the Kd: it is the free concentration of one partner at which half of the binding sites on the other are occupied at equilibrium, for simple one-to-one binding. The term koff denotes the rate constant with which the complex falls apart. In general, kon refers to a measure of how fast the partners come together.

B1: APRIL T175D-D205K double mutant (ligand)
chain: AVLTQKQKKQHSVLHLVPINATSKDDSDVTEVMWQPALRRGRGLQAQGYGVRIQDAGVYLLYSQVLFQDVDFTMGQVVSREGQGRQETLFRCIRSMPSHPKRAYNSCYSAGVFHLHQGDILSVIIPRARAKLNLSPHGTFLGFVKL
notes: also called T175D-D205Y/K; not shown: FLAG tag
For the molecule B1, the binding result in the test with human BCMA-Fc [1] and in the test with human TACI-Fc [2] was “no binding” throughout.

B2: APRIL-R231A (FLAG-tagged soluble variant) (ligand)
chain: AVLTQKQKKQHSVLHLVPINATSKDDSDVTEVMWQPALRRGRGLQAQGYGVRIQDAGVYLLYSQVLFQDVTFTMGQVVSREGQGRQETLFRCIRSMPSHPDRAYNSCYSAGVFHLHQGDILSVIIPAARAKLNLSPHGTFLGFVKL
notes: also called receptor-dead R231A variant; not shown: FLAG tag
As to B2, the binding result in test [3] is “no binding”; in test [4] it was “no binding”; with human BCMA-Fc [5], “no binding (tested: undiluted conditioned medium)”; in the test with human TACI-Fc [6], “no binding (tested: undiluted conditioned medium)”.

B3: APRIL-R206M (FLAG-tagged soluble variant) (ligand)
chain: AVLTQKQKKQHSVLHLVPINATSKDDSDVTEVMWQPALRRGRGLQAQGYGVRIQDAGVYLLYSQVLFQDVTFTMGQVVSREGQGRQETLFRCIRSMPSHPDMAYNSCYSAGVFHLHQGDILSVIIPRARAKLNLSPHGTFLGFVKL
notes: Used as conditioned medium; not shown: FLAG tag
B3: in the test with human TACI-Fc [7], the Kd was 0.32 nM, the off-rate (koff) worked out at 0.00016 s⁻¹ and the kon was found to be 490000 M⁻¹ s⁻¹. In addition, the binding result in test [8] is “binds”.

B4: APRIL T175D-R206E double mutant (ligand)
chain: AVLTQKQKKQHSVLHLVPINATSKDDSDVTEVMWQPALRRGRGLQAQGYGVRIQDAGVYLLYSQVLFQDVDFTMGQVVSREGQGRQETLFRCIRSMPSHPDEAYNSCYSAGVFHLHQGDILSVIIPRARAKLNLSPHGTFLGFVKL
notes: not shown: FLAG tag
On to B4, for which the binding result with human BCMA-Fc [1] and with human TACI-Fc [2] was “no binding” each time.

B5: APRIL-R206E (FLAG-tagged soluble variant) (ligand)
chain: AVLTQKQKKQHSVLHLVPINATSKDDSDVTEVMWQPALRRGRGLQAQGYGVRIQDAGVYLLYSQVLFQDVTFTMGQVVSREGQGRQETLFRCIRSMPSHPDEAYNSCYSAGVFHLHQGDILSVIIPRARAKLNLSPHGTFLGFVKL
notes: Used as conditioned medium; also called R206E-APRIL; not shown: FLAG tag
As to B5, the “fold selectivity for BCMA over TACI (comparison of affinities)” value in the test with human BCMA-Fc [9] amounted to 25 fold. Besides, in the test with human BCMA-Fc [10], the Kd was found to be 0.46 nM, the koff was 0.00015 s⁻¹ and the kon is 330000 M⁻¹ s⁻¹. Moreover, in test [11], the equilibrium dissociation constant (Kd) worked out at 0.095 nM, the koff amounted to 0.00015 s⁻¹ and the kon amounted to 1.6e+06 M⁻¹ s⁻¹. Also, in the test with human TACI-Fc [12], the dissociation constant (Kd) is 11 nM, the koff came out at 0.01 s⁻¹ and the kon turned out to be 2e+06 M⁻¹ s⁻¹.

B6: APRIL T175D-D205Y double mutant (ligand)
chain: AVLTQKQKKQHSVLHLVPINATSKDDSDVTEVMWQPALRRGRGLQAQGYGVRIQDAGVYLLYSQVLFQDVDFTMGQVVSREGQGRQETLFRCIRSMPSHPYRAYNSCYSAGVFHLHQGDILSVIIPRARAKLNLSPHGTFLGFVKL
notes: as for B1
With B6, the binding result in the test with human BCMA-Fc [1] and in the test with human TACI-Fc [2] was “no binding” throughout.
